From publication PMC3760334

Key:
[1] = biological target: signal recognition particle (SRP), fluorescein-labeled at C421 (E. coli) (UniProt P0AGD7); experiment: fluorescence polarisation
[2] = biological target: RNC_(1A9L) bound to donor-labeled SRP (E. coli | not stated) (UniProt P0AGD7); experiment: FRET or BRET
[3] = biological target: RNC_(2A8L) bound to donor-labeled SRP (E. coli | not stated) (UniProt P0AGD7); experiment: FRET or BRET
[4] = biological target: RNC_(EspP) bound to donor-labeled SRP (E. coli) (UniProt P0AGD7); experiment: FRET or BRET
[5] = biological target: RNC_(luciferase) bound to donor-labeled SRP (E. coli | firefly) (UniProt P0AGD7); experiment: FRET or BRET

| Substance | Kd [1] [nM] | kon [2] [M⁻¹ s⁻¹] | kon [3] [M⁻¹ s⁻¹] | Kd [4] [nM] | Kd [5] [nM] |
| --- | --- | --- | --- | --- | --- |
| RNC_(EspP): stalled ribosome-nascent chain complex with the signal sequence of EspP | 13.6 |  |  |  |  |
| RNC_(luciferase): stalled ribosome-nascent chain complex with a nascent chain of firefly luciferase (from UniProt P08659 1-550) | 130 |  |  |  |  |
| RNC_(phoA): stalled ribosome-nascent chain complex with the signal sequence of alkaline phosphatase (phoA) | 108 |  |  |  |  |
| SRP receptor (SR), acceptor-labeled (from UniProt P10121 1-497) |  | 9.9e+06 | 8.8e+06 | 311 | 2060 |
